{"source": "patent US20220177587A1", "about": "“METHODS AND USES OF VARIANT CD80 FUSION PROTEINS AND RELATED CONSTRUCTS” (Alpine Immune Sciences, Inc., priority 2018, published 2022)", "molecules": {"B1": {"name": "R29D, Y31L, Q33H, K36G, M38I, T41A, M43R, M47T, N48D, F59L, E81V, L85R, K89N, A91T, F92P, K93V, R94L, I118V, T120S, I127T, T130A, H188D (protein)", "chain": "VIHVTKEVKEVATLSCGHNVSVEELAQTDILWHKEGKIVLAMRSGDTDIWPEYKNRTILDITNNLSIVILALRPSDEGTYVCVVRKYENDTPVLEHLAEVTLSVKADFPTPSISDFEVPSSNIRRITCSASGGFPEPHLSWLENGEELNAINTTVSQDPETELYAVSSKLDFNMTTNHSFMCLIKYGDLRVNQTFNWNTTKQEHFPDN"}, "B2": {"name": "H18L, R29D, Y31L, Q33H, K36G, M38I, T41A, M43R, M47T, L70Q, E81V, L85R, K89N, A91T, F92P, K93V, R94L, I118V, T120S, T130A, K169E, H188D (protein)", "chain": "B1 chain with H18L, D48N, L59F, L70Q, T127I, K169E"}, "B3": {"name": "R29D, Y31L, Q33H, K36G, M38I, T41A, M43R, M47T, L70Q, E81V, K89N, A91T, F92P, K93V, R94L, I118V, T120S, I127T, T130A (protein)", "chain": "B1 chain with D48N, L59F, L70Q, R85L, D188H"}, "B4": {"name": "R29D, Y31L, Q33H, K36G, M38I, T41A, M43R, M47T, L70Q, E81V, L85R, K89N, A91T, F92P, K93V, R94L, I118V, T120S, I127T, T130A, K169E (protein)", "chain": "B1 chain with D48N, L59F, L70Q, K169E, D188H"}, "B5": {"name": "R29D, Y31L, Q33H, K36G, M38I, T41A, M43R, M47T, L70Q, E81V, L85R, K89N, A91T, F92P, K93V, R94L, I118V, T120S, I127T, T130A, E143G, K169E, M174V, H188D (protein)", "chain": "B1 chain with D48N, L59F, L70Q, E143G, K169E, M174V"}, "B6": {"name": "R29D, Y31L, Q33H, K36G, M38I, T41A, M43R, M47T, L70Q, E81V, L85R, K89N, A91T, F92P, K93V, R94L, T130A, H188D (protein)", "chain": "B1 chain with D48N, L59F, L70Q, V118I, S120T, T127I"}, "B7": {"name": "R29D, I30V, Y31L, Q33H, K36G, M38I, T41A, M43R, M47T, E81V, L85R, K89N, A91T, F92P, K93V, R94L, I118V, T120S, I127T, T130A, H188D (protein)", "chain": "B1 chain with I30V, D48N, L59F"}, "B8": {"name": "R29D, Y31L, Q33H, K36G, M38I, T41A, M43R, M47T, L70Q, E81V, L85R, K89N, A91T, F92P, K93V, R94L, I118V, T120S, T130A, N149D, K169E, H188D (protein)", "chain": "B1 chain with D48N, L59F, L70Q, T127I, N149D, K169E"}, "B9": {"name": "R29D, Y31L, Q33H, K36G, M38I, T41A, M43R, M47T, L85R, K89N, A91T, F92P, K93V, R94L, I118V, T120S, I127T, T130A, K169E, H188D (protein)", "chain": "B1 chain with D48N, L59F, V81E, K169E"}, "B10": {"name": "H18R, R29D, Y31L, Q33H, K36G, K37E, M38I, T41A, M43R, M47T, L70Q, E81V, L85R, K89N, A91T, F92P, K93V, R94L, I118V, T120S, T130A, K169E, H188D (protein)", "chain": "B1 chain with H18R, K37E, D48N, L59F, L70Q, T127I, K169E"}, "B11": {"name": "R29D, Y31L, Q33H, K36G, M38I, T41A, M43R, M47T, E81V, L85R, K89N, A91T, F92P, K93V, R94L, I118V, T120S, I127T, C128Y, T130A, H188D (protein)", "chain": "B1 chain with D48N, L59F, C128Y"}, "B12": {"name": "R29D, Y31L, Q33H, K36G, M38I, T41A, M43R, M47T, E81V, L85R, K89N, A91T, F92P, K93V, R94L, F108L, I118V, T120S, T130A, K169E, H188D (protein)", "chain": "B1 chain with D48N, L59F, F108L, T127I, K169E"}, "B13": {"name": "T13R/C16R/L70Q/A71D: variant CD80 IgV-Fc, IgV SEQ ID NO:155 (protein)", "chain": "VIHVTKEVKEVARLSRGHNVSVEELAQTRIYWQKEKKMVLTMMSGDMNIWPEYKNRTIFDITNNLSIVIQDLRPSDEGTYECVVLKYEKDAFKREHLAEVTLSVKAD"}, "B14": {"name": "M43I/C82R: variant CD80 IgV-Fc, IgV SEQ ID NO:157 (protein)", "chain": "B13 chain with R13T, R16C, M43I, Q70L, D71A, C82R"}, "B15": {"name": "V22L/M38V/M47I/A71D/L85M: variant CD80 IgV-Fc, IgV SEQ ID NO:158 (protein)", "chain": "B13 chain with R13T, R16C, V22L, M38V, M47T, Q70L, L85M"}, "B16": {"name": "T57I: variant CD80 IgV-Fc, IgV SEQ ID NO:156 (protein)", "chain": "B13 chain with R13T, R16C, T57I, Q70L, D71A"}, "B17": {"name": "I30V/T57I/L70P/A71D/A91T: variant CD80 IgV-Fc, IgV SEQ ID NO:159 (protein)", "chain": "B13 chain with R13T, R16C, I30V, T57I, Q70P, A91T"}, "B18": {"name": "V22I/L70M/A71D: variant CD80 IgV-Fc, IgV SEQ ID NO:160 (protein)", "chain": "B13 chain with R13T, R16C, V22I, Q70M"}, "B19": {"name": "E35D/M47I/L65P/D90N: variant CD80 IgV-Fc, IgV SEQ ID NO:167 (protein)", "chain": "B13 chain with R13T, R16C, E35D, M47I, L65P, Q70L, D71A, D90N"}, "B20": {"name": "L25S/E35D/M47I/D90N: variant CD80 IgV-Fc, IgV SEQ ID NO:168 (protein)", "chain": "B13 chain with R13T, R16C, L25S, E35D, M47I, Q70L, D71A, D90N"}}, "note": "Where a chain is given by its changes, count along the chain named. In names and notes the source's numbering stands. Several values for one entry are separate records, joined by “and”; a condition that tells them apart may be missing. Equal values may be shown once."}
{"system": "human pan T cells", "assay": "Anti-CD3 coimmobilization assay, IFN-gamma", "format": "cell-based", "details": "Table E34; culture supernatant, 3 days", "method_in_brief": "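IFN-gamma in 3-day culture supernatants, quantified by ELISA, reflects costimulation. Human pan T cells or BC3 clone (100,000/well, Ex-Vivo 15) were placed on wells pre-adsorbed overnight with rCD80.Fc variants (1–80 nM) together with anti-CD3 OKT3 (1 nM or 4 nM), unbound protein removed.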"}
{"molecule": "B1", "Anti-CD3 IFN-gamma Coimmobilization Assay": "230 pg/mL"}
{"molecule": "B2", "Anti-CD3 IFN-gamma Coimmobilization Assay": "157 pg/mL"}
{"molecule": "B3", "Anti-CD3 IFN-gamma Coimmobilization Assay": "226 pg/mL"}
{"molecule": "B4", "Anti-CD3 IFN-gamma Coimmobilization Assay": "203 pg/mL"}
{"molecule": "B5", "Anti-CD3 IFN-gamma Coimmobilization Assay": "291 pg/mL"}
{"molecule": "B6", "Anti-CD3 IFN-gamma Coimmobilization Assay": "213 pg/mL"}
{"molecule": "B7", "Anti-CD3 IFN-gamma Coimmobilization Assay": "127 pg/mL and 237 pg/mL"}
{"molecule": "B8", "Anti-CD3 IFN-gamma Coimmobilization Assay": "118 pg/mL"}
{"molecule": "B9", "Anti-CD3 IFN-gamma Coimmobilization Assay": "231 pg/mL"}
{"molecule": "B10", "Anti-CD3 IFN-gamma Coimmobilization Assay": "305 pg/mL"}
{"molecule": "B11", "Anti-CD3 IFN-gamma Coimmobilization Assay": "278 pg/mL"}
{"molecule": "B12", "Anti-CD3 IFN-gamma Coimmobilization Assay": "165 pg/mL"}
{"target": "CD28 (Homo sapiens, UniProt P10747)", "assay": "Jurkat/IL2 reporter assay: blockade of CD28 costimulation (plate-bound anti-CD3/CD86-Fc)", "format": "cell-based", "parameters": "host or cells: Jurkat cells expressing an IL-2-luciferase reporter", "details": "Table E5; protein diluted to 40 nM before mixing with cells; 5 hours", "method": "The day before the assay, the assay plate was prepared. […] The plate was incubated overnight at 4° C. to allow the antibody and CD86-Fc protein to adhere to the surface of the plate. The next day, the wells of the assay plate were washed twice with 150 μL PBS prior to the assay.\nJurkat effector cells expressing IL-2-luciferase reporter were counted and resuspended in assay buffer to a concentration of 2×10^6 cells/mL. 60 μL of the Jurkat cell suspension were then added to the wells containing the CD80-Fc fusion molecules or controls. The cells and CD80 proteins were incubated at room temperature for 15 minutes and then 100 μL of the cell/CD80 protein mixture were transferred/well of the prepared anti-CD3/CD86-Fc assay plate.\nThe assay plate was briefly spun down (10 seconds at 1200 RPM) and incubated at 37° C. for 5 hours. After the 5 hour incubation, the plate was removed and equilibrated to room temperature for 15 minutes. 100 μL of Bio-Glo (Promega) were added/well of the assay plate, which was then placed on an orbital shaker for 10 minutes. Luminescence was measured with a 1 second per well integration time using a BioTek Cytation 3 luminometer."}
{"molecule": "B13", "Average Relative Luminescence Units": "3204 Relative Luminescence Units"}
{"molecule": "B14", "Average Relative Luminescence Units": "1326 Relative Luminescence Units"}
{"molecule": "B15", "Average Relative Luminescence Units": "1770 Relative Luminescence Units"}
{"molecule": "B16", "Average Relative Luminescence Units": "1463 Relative Luminescence Units"}
{"molecule": "B17", "Average Relative Luminescence Units": "1731 Relative Luminescence Units"}
{"molecule": "B18", "Average Relative Luminescence Units": "253 Relative Luminescence Units"}
{"molecule": "B19", "Average Relative Luminescence Units": "2377 Relative Luminescence Units"}
{"molecule": "B20", "Average Relative Luminescence Units": "2567 Relative Luminescence Units"}
